Measured values: patent US20120316071A1 (published 2012)
Blank lines part the entries; values can stand above or below the binder they belong to.

Experiments:
[1] = molecular target: T1, rHuman Notch-1/Fc Chimera, CF (R&D Systems Cat#3647-TK) (human, UniProt P46531 19-526); assay: MSD multispot ECL, antigen spotted, Fab 595.8 nM; blank spot 285
T1 construct: Bought reagent

[2] = molecular target: T2, Recombinant Human DLL4 (R&D Systems Cat#1506-D4/CF) (human, UniProt Q9NR61 27-524); assay: as above
T2 construct: Bought recombinant protein; also called rHuman DLL4; delta-like protein 4

[3] = molecular target: T3, rHuman ErbB2/Fc Chimera, CF (R&D Systems Cat#1129-ER) (human, UniProt P04626 23-652); assay: as above
T3 construct: Bought reagent; also called human epidermal growth factor 2 receptor

[4] = molecular target: T4, rHuman HGF R/c-MET/Fc Chimera, CF (R&D Systems Cat#358-MT/CF) (human, UniProt P08581 25-932); assay: as above
T4 construct: Bought reagent; also called HGF R/Fc; hepatocyte growth factor receptor

[5] = molecular target: T5, rHuman CD44/Fc Chimera, CF (R&D Systems Cat#3660-CD) (human, UniProt P16070 21-220); assay: as above
T5 construct: Bought reagent

[6] = molecular target: T6, rHuman Erythropoietin R/Fc Chimera, CF (R&D Systems Cat#963-ER) (human, UniProt P19235 25-250); assay: as above
T6 construct: Bought reagent; also called EPO R/Fc; Epo R
T6 sequence (looked up): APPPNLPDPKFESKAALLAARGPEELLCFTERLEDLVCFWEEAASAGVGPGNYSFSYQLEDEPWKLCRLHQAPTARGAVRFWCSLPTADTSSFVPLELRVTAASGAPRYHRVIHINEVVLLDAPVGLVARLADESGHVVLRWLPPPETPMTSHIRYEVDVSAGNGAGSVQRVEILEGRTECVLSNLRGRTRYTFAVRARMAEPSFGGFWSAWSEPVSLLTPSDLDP

[7] = molecular target: T7, rHuman IGF-1 sR, (IGF-1 sR), CF (R&D Systems Cat#391-GR) (human, UniProt P08069 31-932); assay: as above
T7 construct: Bought soluble receptor; also called insulin-like growth factor-1 soluble receptor

[8] = molecular target: T8, rHuman EGF R/Fc Chimera, CF (R&D Systems Cat#344-ER) (human, UniProt P00533 25-645); assay: as above
T8 construct: Bought reagent; also called epidermal growth factor receptor

[9] = molecular target: T9, rHuman Erythropoietin R/Fc Chimera, CF (R&D Systems Cat#963-ER) (human, UniProt P19235 25-250); assay: MSD Multispot ECL, antigen spotted on plate, Fab at 120 nM; blank spot 363
T9 construct: Bought Fc chimera; also called EPO R/Fc; Epo R; Fc part of the bought chimera not given
T9 sequence (looked up): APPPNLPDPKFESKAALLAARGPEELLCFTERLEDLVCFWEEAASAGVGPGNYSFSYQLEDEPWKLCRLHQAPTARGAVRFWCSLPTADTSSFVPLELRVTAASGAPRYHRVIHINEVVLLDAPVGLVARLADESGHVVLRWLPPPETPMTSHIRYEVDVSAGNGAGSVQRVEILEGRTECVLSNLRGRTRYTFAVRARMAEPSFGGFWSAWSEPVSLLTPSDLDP

[10] = molecular target: T10, Recombinant Human DLL4 (R&D Systems Cat#1506-D4/CF) (human, UniProt Q9NR61 27-524); assay: as above
T10 construct: Bought recombinant protein; also called rHuman DLL4; delta-like protein 4

[11] = molecular target: T11, rHuman HGF R/c-MET/Fc Chimera, CF (R&D Systems Cat#358-MT/CF) (human, UniProt P08581 25-932); assay: MSD multispot ECL, antigen spotted on plate; Fab 0.00797 uM; blank spot 364
T11 construct: Bought recombinant protein; also called HGF R/Fc; hepatocyte growth factor receptor; Fc part of the bought chimera not given

[12] = molecular target: T12, rHuman IGF-1 sR (IGF-1 sR), CF (R&D Systems Cat#391-GR) (human, UniProt P08069 31-932); assay: Multispot ECL (MSD) titration; antigen spotted on plate; Fab 1570 nM; blank spot 866
T12 construct: Bought soluble receptor; also called insulin-like growth factor-1 soluble receptor

[13] = molecular target: T13, rHuman P-Cadherin/Fc Chimera, CF (R&D Systems Cat#861-PC) (human, UniProt P22223 108-654); assay: as above
T13 construct: Bought Fc chimera; Fc part of the bought chimera not given

[14] = molecular target: T14, Recombinant Human DLL4 (R&D Systems Cat#1506-D4/CF) (human, UniProt Q9NR61 27-524); assay: as above
T14 construct: Bought recombinant protein; also called delta-like protein 4; rHuman DLL4

[15] = molecular target: T15, rHuman ErbB2/Fc Chimera, CF (R&D Systems Cat#1129-ER) (human, UniProt P04626 23-652); assay: as above
T15 construct: Bought Fc chimera; also called human epidermal growth factor 2 receptor; Fc part of the bought chimera not given

[16] = molecular target: T16, rHuman HGF R/c-MET/Fc Chimera, CF (R&D Systems Cat#358-MT/CF) (human, UniProt P08581 25-932); assay: as above
T16 construct: Bought Fc chimera; also called HGF R/Fc; hepatocyte growth factor receptor; Fc part of the bought chimera not given

[17] = molecular target: T17, rHuman Notch-1/Fc Chimera, CF (R&D Systems Cat#3647-TK) (human, UniProt P46531 19-526); assay: as above
T17 construct: Bought Fc chimera; Fc part of the bought chimera not given

[18] = molecular target: T18, rHuman CD44/Fc Chimera, CF (R&D Systems Cat#3660-CD) (human, UniProt P16070 21-220); assay: as above
T18 construct: Bought Fc chimera; Fc part of the bought chimera not given

[19] = molecular target: T19, rHuman Erythropoietin R/Fc Chimera, CF (R&D Systems Cat#963-ER) (human, UniProt P19235 25-250); assay: as above
T19 construct: Bought Fc chimera; also called EPO R/Fc; EPO R; Fc part of the bought chimera not given
T19 sequence (looked up): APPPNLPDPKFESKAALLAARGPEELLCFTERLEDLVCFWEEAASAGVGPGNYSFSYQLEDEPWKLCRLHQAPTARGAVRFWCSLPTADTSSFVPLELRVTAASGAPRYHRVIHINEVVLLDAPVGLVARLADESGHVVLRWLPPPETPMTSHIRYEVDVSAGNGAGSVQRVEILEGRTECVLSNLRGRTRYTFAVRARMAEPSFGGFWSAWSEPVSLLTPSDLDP

ECL signal [1]: 306 ECL signal
ECL signal [2]: 17200 ECL signal
ECL signal [3]: 321 ECL signal
ECL signal [4]: 353 ECL signal
ECL signal [5]: 372 ECL signal
ECL signal [6]: 378 ECL signal
ECL signal [7]: 335 ECL signal
ECL signal [8]: 403 ECL signal
B1: Fab VH1-46_IGHD6-6*01_IGHJ1*01 & L6_IGKJ1*01 (Fab, V domains shown)
VH: QVQLVQSGAEVKKPGASVKVSCKASGYTFTSYYMHWVRQAPGQGLEWMGIINPSGGSTSYAQKFQGRVTMTRDTSTSTVYMELSSLRSEDTAVYYCAREEYSSSSAEYFQHWGQGTLVTVSS
VL: not shown
notes: Only variable domains are tied to the molecule; Tested as a Fab made in E. coli: heavy chain from Plasmid A (CH1 constant region, His6 and Flag tags), kappa light chain from Plasmid C (kappa CL); also called parent Hit Fab against DLL4; VH1-46_IGHD6-6*01_IGHJ1*01 & L6_IGKJ1*01 (parental)

ECL signal [11]: 419
B3: Fab VH4-34_IGHD7-27*01_IGHJ4*01 & L5_IGKJ1*01 (Fab, V domains shown)
VH: QVQLQQWGAGLLKPSETLSLTCAVYGGSFSGYYWSWIRQPPGKGLEWIGEINHSGSTNYNPSLKSRVTISVDTSKNQFSLKLSSVTAADTAVYYCARANWGDYFDYWGQGTLVTVSS
VL: DIQMTQSPSSVSASVGDRVTITCRASQGISSWLAWYQQKPGKAPKLLIYAASSLQSGVPSRFSGSGSGTDFTLTISSLQPEDFATYYCQQANSFPPWTFGQGTKVEIKR
notes: Germline library Fab expressed in E. coli; VH was cloned into Plasmid A, which adds CH1 with His6 and Flag tags

More lines, now with the values behind:

B2: Fab VH6-1_IGHD3-3*01_IGHJ4*01 & V4-3_IGLJ4*01 (Fab, V domains shown)
VH: QVQLQQSGPGLVKPSQTLSLTCAISGDSVSSNSAAWNWIRQSPSRGLEWLGRTYYRSKWYNDYAVSVKSRITINPDTSKNQFSLQLNSVTPEDTAVYYCAREYYDFWSGYYTDYFDYWGQGTLVTVSS
VL: QPVLTQPTSLSASPGASARLTCTLRSGINLGSYRIFWYQQKPESPPRYLLSYYSDSSKHQGSGVPSRFSGSKDASSNAGILVISGLQSEDEADYYCMIWHSSASFVFGGGTQLIIL
notes: Tested as a purified germline Fab made in E. coli; The VH was cloned into plasmid A (CH1 constant region, His6 and Flag tags) and the lambda VL into plasmid E (lambda CL)
ECL signal [9]: 431
ECL signal [10]: 938

B4: Fab VH1-46_IGHD3-10*01_IGHJ4*01 & O1_IGKJ1*01 (Fab, V domains shown)
VH: QVQLVQSGAEVKKPGASVKVSCKASGYTFTSYYMHWVRQAPGQGLEWMGIINPSGGSTSYAQKFQGRVTMTRDTSTSTVYMELSSLRSEDTAVYYCAREYYYGSGSYYNDYFDYWGQGTLVTVSS
VL: DIVMTQTPLSLPVTPGEPASISCRSSQSLLDSDDGNTYLDWYLQKPGQSPQLLIYTLSYRASGVPDRFSGSGSGTDFTLKISRVEAEDVGVYYCMQRIEFPSWTFGQGTKVEIKR
notes: Germline library Fab expressed in E. coli; VH was cloned into Plasmid A (CH1 constant region, His6 and Flag tags); The kappa VL was cloned into Plasmid C (kappa CL)
ECL signal [12]: 1430
ECL signal [13]: 1790
ECL signal [14]: 2700
ECL signal [15]: 1260
ECL signal [16]: 1640
ECL signal [17]: 1640
ECL signal [18]: 1380
ECL signal [19]: 6120
